Measured values from the supplement of paper PMC10201428.
± gives the standard deviation of the averaged measurements.

B1: library; a variant is named by its letters at N, in order (parent)
chain: ACATTTGTTGATACAACCATAAAATGATAATTACACCCATAAATTGATAATTATCACACCCANNNNNNNNNNNNNNCTCTGATCATAGTCAGACCAACATTGCTACGACCCGTATTCGCACCGACAC

Columns and labels:
[1] = variants of: B1; experiment: relative integration efficiency (T-RL orientation) vs wild-type transposon end (log2 (normalized fold change)); transposon end mutated: right end (5 bp flank + 75 bp right end); higher = more efficient transposition; settings: with VchCAST RNA-guided transposition machinery (E. coli BL21(DE3) host, lacZ target)
Method: (§1)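 Pooled, barcoded VchCAST (Tn6677) mini-transposon donor libraries; each variable transposon-end sequence sits in a fixed pDonor mini-transposon context (10-bp barcode and cargo not included). Left- or right-end libraries were co-transformed with pEffector (TniQ-Cascade, TnsABC, lacZ crRNA, T7, 0.1 mM IPTG) into E. coli BL21(DE3) and grown 18 h at 37 C. T-LR and T-RL junction amplicons were sequenced; output/input barcode fold change was normalised to the mean of four wild-type barcodes and log2-transformed. Two biological replicates; zero-count/undetected variants carry floor values (-10 / -15), censored here. Barcode uncoupling by PCR recombination adds noise.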

[2] = variants of: B1; experiment: relative integration efficiency (T-LR orientation) vs wild-type transposon end (log2 (normalized fold change)); transposon end mutated: right end (5 bp flank + 75 bp right end); higher = more efficient transposition; settings: with VchCAST RNA-guided transposition machinery (E. coli BL21(DE3) host, lacZ target)
Method: as §1

Variant	relative integration efficiency (log2) [1]	relative integration efficiency (log2) [2]
ACATTCGTTGATACAACCATAAAATGATAATTACACCCATAAATTGATAATTATCACACCCATAAATTGATATTGCCTCTGATCATAGTCAGACCAACATTGCTACGACCCGTATTCGCACCGACAC [TAAATTGATATTGC T6C]	-1.81 ± 0.2	-2.11 ± 0.46
ACATTGGTTGATACAACCATAAAATGATAATTACACCCATAAATTGATAATTATCACACCCATAAATTGATATTGCCTCTGATCATAGTCAGACCAACATTGCTACGACCCGTATTCGCACCGACAC [TAAATTGATATTGC T6G]	-6.66 ± 0.074	-5.28 ± 0.39
ACATTAGTTGATACAACCATAAAATGATAATTACACCCATAAATTGATAATTATCACACCCATAAATTGATATTGCCTCTGATCATAGTCAGACCAACATTGCTACGACCCGTATTCGCACCGACAC [TAAATTGATATTGC T6A]	-5.81 ± 0.51	-5.94 ± 1.9
ACATTTGTTGATACAACCATAAAATGATAATTACACCCATAAATTAATAATTATCACACCCATAAATTGATATTGCCTCTGATCATAGTCAGACCAACATTGCTACGACCCGTATTCGCACCGACAC [TAAATTGATATTGC G46A]	-0.369 ± 0.054	-0.642 ± 0.19
ACATTTGTTGATACAACCATAAAATGATAATTACACCCATAAATTCATAATTATCACACCCATAAATTGATATTGCCTCTGATCATAGTCAGACCAACATTGCTACGACCCGTATTCGCACCGACAC [TAAATTGATATTGC G46C]	-0.936 ± 0.067	-0.847 ± 0.31
ACATTTGTTGATACAACCATAAAATGATAATTACACCCATAAATTTATAATTATCACACCCATAAATTGATATTGCCTCTGATCATAGTCAGACCAACATTGCTACGACCCGTATTCGCACCGACAC [TAAATTGATATTGC G46T]	-0.423 ± 0.077	-0.734 ± 0.14
ACACTTGTTGATACAACCATAAAATGATAATTACACCCATAAATTGATAATTATCACACCCATAAATTGATATTGCCTCTGATCATAGTCAGACCAACATTGCTACGACCCGTATTCGCACCGACAC [TAAATTGATATTGC T4C]	-0.0535 ± 0.0038	-0.0603 ± 0.29
ACAGTTGTTGATACAACCATAAAATGATAATTACACCCATAAATTGATAATTATCACACCCATAAATTGATATTGCCTCTGATCATAGTCAGACCAACATTGCTACGACCCGTATTCGCACCGACAC [TAAATTGATATTGC T4G]	-0.1742 ± 0.00091	0.405 ± 0.34
ACAATTGTTGATACAACCATAAAATGATAATTACACCCATAAATTGATAATTATCACACCCATAAATTGATATTGCCTCTGATCATAGTCAGACCAACATTGCTACGACCCGTATTCGCACCGACAC [TAAATTGATATTGC T4A]	-0.153 ± 0.014	-0.113 ± 0.32
ACATTTGATGATACAACCATAAAATGATAATTACACCCATAAATTGATAATTATCACACCCATAAATTGATATTGCCTCTGATCATAGTCAGACCAACATTGCTACGACCCGTATTCGCACCGACAC [TAAATTGATATTGC T8A]	-0.814 ± 0.13	-1.99 ± 0.69
ACATTTGCTGATACAACCATAAAATGATAATTACACCCATAAATTGATAATTATCACACCCATAAATTGATATTGCCTCTGATCATAGTCAGACCAACATTGCTACGACCCGTATTCGCACCGACAC [TAAATTGATATTGC T8C]	-0.808 ± 0.29	-2.19 ± 0.042
ACATTTGTTCATACAACCATAAAATGATAATTACACCCATAAATTGATAATTATCACACCCATAAATTGATATTGCCTCTGATCATAGTCAGACCAACATTGCTACGACCCGTATTCGCACCGACAC [TAAATTGATATTGC G10C]	-0.405 ± 0.069	-1.81 ± 0.24
ACATTTGTTAATACAACCATAAAATGATAATTACACCCATAAATTGATAATTATCACACCCATAAATTGATATTGCCTCTGATCATAGTCAGACCAACATTGCTACGACCCGTATTCGCACCGACAC [TAAATTGATATTGC G10A]	0.115 ± 0.017	-0.464 ± 0.17
ACATTTGTTTATACAACCATAAAATGATAATTACACCCATAAATTGATAATTATCACACCCATAAATTGATATTGCCTCTGATCATAGTCAGACCAACATTGCTACGACCCGTATTCGCACCGACAC [TAAATTGATATTGC G10T]	-0.7118 ± 0.001	-1.93 ± 0.22
ACATATGTTGATACAACCATAAAATGATAATTACACCCATAAATTGATAATTATCACACCCATAAATTGATATTGCCTCTGATCATAGTCAGACCAACATTGCTACGACCCGTATTCGCACCGACAC [TAAATTGATATTGC T5A]	0.0941 ± 0.11	0.163 ± 0.31
ACATCTGTTGATACAACCATAAAATGATAATTACACCCATAAATTGATAATTATCACACCCATAAATTGATATTGCCTCTGATCATAGTCAGACCAACATTGCTACGACCCGTATTCGCACCGACAC [TAAATTGATATTGC T5C]	-0.234 ± 0.068	-0.488 ± 0.12
ACATGTGTTGATACAACCATAAAATGATAATTACACCCATAAATTGATAATTATCACACCCATAAATTGATATTGCCTCTGATCATAGTCAGACCAACATTGCTACGACCCGTATTCGCACCGACAC [TAAATTGATATTGC T5G]	-0.23 ± 0.018	-0.319 ± 0.36
ACATTTGTTGATACAACCATAAAATAATAATTACACCCATAAATTGATAATTATCACACCCATAAATTGATATTGCCTCTGATCATAGTCAGACCAACATTGCTACGACCCGTATTCGCACCGACAC [TAAATTGATATTGC G26A]	-0.553 ± 0.15	-0.268 ± 0.011
ACATTTGTTGATACAACCATAAAATTATAATTACACCCATAAATTGATAATTATCACACCCATAAATTGATATTGCCTCTGATCATAGTCAGACCAACATTGCTACGACCCGTATTCGCACCGACAC [TAAATTGATATTGC G26T]	-0.472 ± 0.11	-0.0416 ± 0.43
ACATTTGTTGATACAACCATAAAATCATAATTACACCCATAAATTGATAATTATCACACCCATAAATTGATATTGCCTCTGATCATAGTCAGACCAACATTGCTACGACCCGTATTCGCACCGACAC [TAAATTGATATTGC G26C]	-1.71 ± 0.29	-1.36 ± 0.46
ACATTTTTTGATACAACCATAAAATGATAATTACACCCATAAATTGATAATTATCACACCCATAAATTGATATTGCCTCTGATCATAGTCAGACCAACATTGCTACGACCCGTATTCGCACCGACAC [TAAATTGATATTGC G7T]	-2.2 ± 0.4	-3.44 ± 0.49
ACATTTATTGATACAACCATAAAATGATAATTACACCCATAAATTGATAATTATCACACCCATAAATTGATATTGCCTCTGATCATAGTCAGACCAACATTGCTACGACCCGTATTCGCACCGACAC [TAAATTGATATTGC G7A]	-0.0765 ± 0.034	-0.974 ± 0.015
ACATTTCTTGATACAACCATAAAATGATAATTACACCCATAAATTGATAATTATCACACCCATAAATTGATATTGCCTCTGATCATAGTCAGACCAACATTGCTACGACCCGTATTCGCACCGACAC [TAAATTGATATTGC G7C]	-0.529 ± 0.13	-1.41 ± 0.63
